Reference: patent US20100093076A1, “SOLUBLE IL-27 RECEPTOR” (priority 2006, published 2010)
Where “and” joins values, the source holds several entries; their conditions need not be identical. Identical values can stand only once.

Experiments:
single-chain mouse IL-27 = molecular target: T1, single-chain mouse IL-27 (Mus musculus, UniProt O35228+Q8K3I6); assay: IL-27 inhibition of IL-2 production neutralized by IL-27RA Fc (third set of experiments); type: cell-based; conditions: + IL-27 (10 ng/ml)
T1 sequence (O35228+Q8K3I6 with tags, fused parts or gaps): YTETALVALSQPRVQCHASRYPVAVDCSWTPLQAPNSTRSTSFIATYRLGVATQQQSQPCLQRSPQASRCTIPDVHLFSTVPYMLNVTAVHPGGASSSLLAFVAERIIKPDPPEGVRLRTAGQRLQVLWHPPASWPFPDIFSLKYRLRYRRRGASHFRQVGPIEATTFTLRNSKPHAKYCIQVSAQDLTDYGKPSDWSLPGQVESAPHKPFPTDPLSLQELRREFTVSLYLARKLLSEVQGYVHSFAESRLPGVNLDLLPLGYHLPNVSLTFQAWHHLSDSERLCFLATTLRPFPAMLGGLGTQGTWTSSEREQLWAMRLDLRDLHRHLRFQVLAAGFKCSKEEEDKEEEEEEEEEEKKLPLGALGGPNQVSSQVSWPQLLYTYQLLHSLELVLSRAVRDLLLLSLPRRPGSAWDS
Experimental: Naïve mouse CD4 T-cells were isolated as described above. For testing of the neutralizing mAbs, the naïve CD4 T cells were preincubated for 30 minutes at 37 degrees C. with graded concentrations (60, 30, 15, 7.5, 3.75, 1.875.micro.g/ml) of either neutralizing rat anti-mouse IL27RA mAb (each mAb tested separately), rat IgG1 isotype control mAb, rat IgG2a isotype control mAb, or no mAb. […] The CD4 T cells (4×10^5/well) were then transferred to anti-CD3 coated tissue culture plates. Single-chain mouse IL-27 (10 ng/ml) was then added to the plates. Duplicate plates were set up for all experimental conditions. The plates were then cultured at 37 degrees for up to 72 hours.
For testing of the soluble receptor, single-chain mouse IL-27 (10 ng/ml) was preincubated for 30 minutes at 37 degrees C. with either IL27RAm(mFc1) (10.0 and 5.0.micro.g/ml), IL27RA-Fc5, mouse Fc1 protein (10.0 and 5.0.micro.g/ml), human Fc5 protein (10.0 and 5.0.micro.g/ml), or no recombinant protein in wells of the anti-CD3 coated plates. 4×10^5 CD4^+ CD62L high cells were added to the wells. Duplicate plates were set up for all experimental conditions. The plates were then cultured at 37 degrees for up to 72 hours. Cell supernatants were collected from one set of plates at 48 hours and from the duplicate set of plates at 72 hours. The supernatants were stored frozen at −80° C.

[1] = Pharmacokinetics of soluble receptors in female C57B1/6 mice (serum ELISA, noncompartmental analysis); type: in vivo, mouse; conditions: for AUCINF: extrapolated to infinity
Experimental: Studies were performed to evaluate the pharmacokinetics of the mouse (IL-27RAm(mFc1)) and human (IL-27RA-Fc5) soluble receptors in female C57B1/6 mice.
Serum was generated from each sample and analyzed by a qualified enzyme-linked immunosorbant assay (ELISA). The resulting mean serum concentration versus time profiles were then subjected to noncompartmental pharmacokinetic analyses. The following pharmacokinetic parameters were calculated: C0 and Cmax (extrapolated concentration at time zero and maximum serum concentration, respectively), Tmax (time to achieve maximum concentration), t1/2 λz (terminal half-life), AUC0-t (area under the concentration versus time curve from time zero to the last measurable time point), AUCINF (area under the concentration versus time curve extrapolated to infinity), C1 or C1/F (clearance or clearance divided by bioavailable fraction, respectively), VSS or VZ/F (steady state volume of distribution or volume of distribution divided by the bioavailable fraction, respectively), and F (bioavailable fraction).

B1: IL-27RAm(mFc1): Extracellular domain of mouse IL27RA fused to a wild type BALB/c mouse gamma2a constant region Fc tag (protein)
chain: MNRLERVALARLETPRLEGLLELELESLEMSLELELEGTRPRHGSPRGPRLEQCYSVGPRLEGILENCSWGLPRLEGDLEGLTPRPRVLEYHQSQKYHPRNRVWGLVKVPRSKQSWVTIPRRGLQFTMADKLELEIWGTQKGRPRLEWSSVSVASNLEGLTQMKPRDTPRQIFSQVASPISGLGLATLEGLATVQWAPRPRVWPRPRQKALETCQFRYKGLCQAGLAWTRLEGLPRQLEKTDGLETPRVGLMQNLEGLPRGTCYQVSGRCQVGLNGYPRWGGLWSSPRLESFQTPRFLEDPRGLDVWVSGTVCGLTSGKRAALELEVWKDPRRPRCVQVTYTVWFGAGDITTTQGLGLVPRCCKSPRVPRAWMGLWAVVSPRGNSTSWVPRPRTNLESLEVCLEAPRGLSAPRCDVGVSSADGSPRGIKVTWKQGTARGSPRLEGLYVVASPWAQDGDSLEDKLENWTRLEPRPRGNLESTLELEPRGGLFKGGVPRYRITVTAVYSGGLEAAAPRSVWGFRGLGLLEVPRLEAGPRAVWRLEPRDDPRPRGTPRVVALAWGGLVPRRHQLERGQATHYTFCIQSRGLESTVCRNVSSQTQTATLEPRNLEHSGSFKLEWVTVSTVALAGQGPRPRGPRDLESLEHLEPRDNRIRWKALEPRWFLESLEWGLELELEMGCGLESLEASTRCLEQARCLEHWRHKLELEPRQWIWGLRVPRDPRANSNSGQPRYIKGLVSLEPRQPRPRKDGPRILEGLVGLGLVGLLEQPRVVGLSPRKASAPRIYSGYGLKHFLEPRTPRGLGLLEGLELEV
modifications: left off: a dimerising Fc or GST
notes: Extracellular domain of mouse IL27RA fused to a wild type BALB/c mouse gamma2a constant region Fc tag
- IL-2 concentration (single-chain mouse IL-27; 48 hr, protein conc. 5 (μg/ml; Fc controls in molar equiv.)): 4021.15 pg/mL
- IL-2 concentration (single-chain mouse IL-27; 48 hr, protein conc. 10 (μg/ml; Fc controls in molar equiv.), listed as mIL-27RA): 5215.59 pg/mL and 4922.26 pg/mL
- IL-2 concentration (single-chain mouse IL-27; 72 hr, protein conc. 5 (μg/ml; Fc controls in molar equiv.)): 5744.95 pg/mL
- IL-2 concentration (single-chain mouse IL-27; 72 hr, protein conc. 10 (μg/ml; Fc controls in molar equiv.), listed as mIL-27RA): 6704.62 pg/mL and 12186.7 pg/mL
- AUC0-24 ([1]; IP, 100 μg): 98.2 µg·h/mL
- Cl/F ([1]; IP, 100 μg): 0.983 mL/h
- Tmax ([1]; IP, 100 μg): 1 h
- t1/2 λz (terminal half-life) ([1]; IP, 100 μg): 5.17 h
- Cmax ([1]; IP, 100 μg, mouse serum): 13200 ng/mL
- AUCINF ([1]; IP, 100 μg): 102 µg·h/mL
- AUC0-24 ([1]; IV, 100 μg): 157 µg·h/mL
- Cl ([1]; IV, 100 μg): 0.618 mL/h
- Vss ([1]; IV, 100 μg): 3.05 mL
- t1/2 λz (terminal half-life) ([1]; IV, 100 μg): 5.25 h
- Co (extrapolated concentration at time zero) ([1]; IV, 100 μg, mouse serum): 36.2 µg/mL
- AUCINF ([1]; IV, 100 μg): 162 µg·h/mL
- AUC0-24 ([1]; SC, 100 μg): 56.5 µg·h/mL
- Tmax ([1]; SC, 100 μg): 3 h
- Cmax ([1]; SC, 100 μg, mouse serum): 7950 ng/mL
- clearance compared to IL-27RA-Fc5 ([1]; female C57B1/6 mice): more rapid clearance
